# Experimental data published in publication PMC3064236.
# Biological target: Mcm2-7 heterohexamer (X. laevis (endogenous in egg extract)) (UniProt P55861)
# Experiment: SEC + other: glycerol gradient sedimentation
substance,measurement,value
"Mcm2-7 heterohexamer, P55861 1-886; P49739 1-807; P30664 1-863; P55862 1-735; Q5FWY4 1-821; Q91876 1-720",stoichiometry N (hexamers in the complex),2
